In the nanobody polyreactivity screen of Harvey et al. (2022):

Assay: yeast display, Sf9 membrane polyspecificity reagent, FACS + sequencing; frameworks hold sequencing errors
In short: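 Synthetic nanobody libraries on Saccharomyces cerevisiae BJ5465 were galactose-induced for 36–48 hours, stained 1 hour at 4 °C with 10% biotinylated, detergent-solubilized Sf9 membrane reagent and enriched on streptavidin microbeads. FACS then separated cells into low and high (top ~1%) gates by anti-HA (expression) and streptavidin (reagent binding) fluorescence. Genes were colony-PCR amplified, MiSeq 2 × 250 sequenced and CDR-length filtered. A clone's polyreactivity label is that of its gate of origin.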

Sequence	polyreactivity (PSR sort gate)
QVQLVESGGGLVQAGGSLRLSCAASGTIFYDNDMGWYRQAPGKERELVAAISWSASDTYYADSVKGRFTISRDNAKNTVYLHINILKPEDTAVYYCNAEVYVWYFVYSALDYWGLGTQVTVSS	low polyreactivity
QVQLVESGGGLVQAGGSLRLSCAASGTIFYVYAMGWYRQAPGKERELVDAINTSGGSTFYADSVKGRFTISRDNAKNTVYLHMKSLKPEDTAVYYCAAERYRYRSTDTMGYWGQGSQVTVSS	low polyreactivity
QVQLVESGGGLVQAGGSLRLSCAASGTIIVWNAMGRYRQARGKERELVASITSGASTNYADSVKGRFTISRDNAKNTVYLQMNSLKPEDTAVYYCNAGPRRTISRSRLRSAPKYDYWGQGTQVTVSS	low polyreactivity
QVQLVESGGGLVQAGGSLRLSCAASGTIIYLNAMAWYRQAPGKERELVAAITSGGSTYYADSVKGRFTISRDNAKNTVYVQMNSLKPEDTAVYYCAAFVWSGWGHWFYFWGQGTQVTVSS	high polyreactivity
QVQLVESGGGLVQAGGSLRLSCAASGTISAYAMGWYRQAPGKERELVAAITRTGGSTYYADSVKGRFTISRDNAKNTVYLQMNSLKPEDTAVYYCATEFRYREFYYWGQGTQVTVSS	high polyreactivity
QVQLVESGGGLVQAGGSLRLSCAASGTIVGYAMGWYRQAPGKERELVASNSWRVGSTYYADSVKGRFTISRDNAKNTVYLQMISLKPEDTAVYYCNAASYVFLYYPGGIYRDDYWGQGTQVTVSS	low polyreactivity
QVQLVESGGGLVQAGGSLRLSCAASGTLSSYAMGWYRQAAGKERELVAALSLSGGSTYADSVKGRFTISRDNAYNTVYLQMNSLKPEDTAVYYCAKDWDVDITWSFSIYNYWGQGTQVTVSS	low polyreactivity
QVQLVESGGGLVQAGGSLRLSCAASGTLSSYAMGWYRQAPGKERELVAAISLSGGSTYYADSVKGRFTISRDNAKNTVYLQMNSLKPEDTAVYYCAKRPKRTYYPHIGYDYWGQGTQVTVSS	low polyreactivity
QVQLVESGGGLVQAGGSLRLSCAASGTTFAKNAMGWYRQAPGKERELVAAISWSGGSTYYADSVKGRFTISRDNAKNSVYLQMNSLKPVDTAVYYCAADSPRYGGYGYWGQGTQVTVSS	low polyreactivity
QVQLVESGGGLVQAGGSLRLSCAASGTTISAYDMGRYRQAPGKEREMVAAITWIGGNTYYADSVKGRFTISRDNAKNTVYLQMNSLKPEDTAVYYCAAEEVPYDRDMDYWGQGTKVTVSS	low polyreactivity
QVQLVESGGGLVQAGGSLRLSCAASGTTIYTNAKGWYRQAPGKEREFVAAISWSGSSTYADSVKGRFTISRDNAKNTFYLQMNSLKPEDTAVYYCAADWFKQRTDYYWGQGTQVTVSS	low polyreactivity
QVQLVESGGGLVQAGGSLRLSCAASGTYRLYAMGWYRQAPGKEREFVAAITYGGGGTYYADSVKGRFTISRDNAKNTVYLQMNSLKPEDTAVYYCAADLYLTDTDVEYYYWGQGTKVTVSS	low polyreactivity
QVQLVESGGGLVQAGGSLRLSCAASGTYYLYAMGWYRQAPRKERELVAAISGSGSTNYADSVKGRFTISRDNAKNTVYLQMNSLKPEDTAVYYCAAYQRYVSVTGARYEYDYWGQGTQVTVSS	low polyreactivity
QVQLVESGGGLVQAGGSLRLSCAASGVIFFSYAMGWYRQAPGKERELVASISRSGGTTYYADSVKGRFTISRDNGKNTVYLQMNSLKPEDTAVYYCAARTYSYYSRDYCGQGTQVTVSS	high polyreactivity
QVQLVESGGGLVQAGGSLRLSCAASGVIFTFYAMGWYRQAPGKEREFVASIDWGDGSTYYADSVKGRFTISRDNAKNTVYLQMNSLKPEDTAVYYCAHDSDGYVCDTEYDYWGQGTQVTVSS	low polyreactivity
QVQLVESGGGLVQAGGSLRLSCAASGVYAMGWYRQAPGQEREWVAAITSVGSTNYADSVKGRFTISRDNAKNTVYLQMNSLKPEDTAVFYCNTDRDTDELDYWGQGTQVTVSS	low polyreactivity
QVQLVESGGGLVQAGGSLRLSCAASGWYRQAPGKERELVAAITYSGGSTYYADSVKGRFTISRDNAKNTVYLQMNSLKPEDTAVYYCAKQGLWIFVVVEMDYWGQGTQVTVSS	low polyreactivity
QVQLVESGGGLVQAGGSLRLSCAASGYIFADNDMGWYRQAPGKERELVASIDWSGGSTYYADSVKGRFTISRDNAKNTVYLQMNSLKPEDTAVYYCNKGAFGGVSSYIYWAFYSGYDYWGLGTQVTVSS	low polyreactivity
QVQLVESGGGLVQAGGSLRLSCAASGYIFAGNAMGWYRQAPGKERELVAAINSDGRTYYADSVRGRFTISRDNAKNSVYLQMNSLKPEDTAVYYCAVVRFYLGDYLVEFDYWGQGTQVTVSS	low polyreactivity
QVQLVESGGGLVQAGGSLRLSCAASGYIFAPYAMGWYRQAPGKERELVAAISSGGSTYYADSVKGRFTISRDNAKNTVYLQKNSQKPEDPAVYYCAKRYIYSYYWGQGTQVTVSS	high polyreactivity
QVQLVESGGGLVQAGGSLRLSCAASGYIFCGYAMGWYRQAPGKERELVAAINRGGSTYYADSVKGRFTISRDNAKNTVYLQMNSLKPEDTAVYYCAARLLYYNSIKRYYWGQGTQVTVSS	high polyreactivity
QVQLVESGGGLVQAGGSLRLSCAASGYIFDDNAMGWYRQAPGKERELVATNYADSVKGRFTISRDNAKNTVYLQMNSLKPEDTAVYYCAKDVWQTYTDLDHWGQGTQVTVSS	low polyreactivity
